Measured values as given in PMC6726503 (Structure (London, England : 1993), 2019).

Biological target: T1, TGF-β2DM:TβRII binary complex (human, UniProt P37173 23-166)
T1 chain 1: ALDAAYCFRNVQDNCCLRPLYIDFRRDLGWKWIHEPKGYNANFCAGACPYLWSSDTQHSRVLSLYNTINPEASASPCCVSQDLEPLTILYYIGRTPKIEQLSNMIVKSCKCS
T1 chain 2: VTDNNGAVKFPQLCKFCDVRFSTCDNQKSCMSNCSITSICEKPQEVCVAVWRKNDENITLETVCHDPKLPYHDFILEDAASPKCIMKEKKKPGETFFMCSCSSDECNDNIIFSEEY
Test: SEC-MALS

stoichiometry N: 1 BG_(O-ZP) per TGF-β2DM dimer
B1: full-length rat betaglycan ectodomain (domain or fragment, UniProt P26342 24-789, looked up)
chain: GPEPSTRCELSPINASHPVQALMESFTVLSGCASRGTTGLPREVHVLNLRSTDQGPGQRQREVTLHLNPIASVHTHHKPIVFLLNSPQPLVWHLKTERLAAGVPRLFLVSEGSVVQFPSGNFSLTAETEERNFPQENEHLLRWAQKEYGAVTSFTELKIARNIYIKVGEDQVFPPTCNIGKNFLSLNYLAEYLQPKAAEGCVLPSQPHEKEVHIIELITPSSNPYSAFQVDIIVDIRPAQEDPEVVKNLVLILKCKKSVNWVIKSFDVKGNLKVIAPNSIGFGKESERSMTMTKLVRDDIPSTQENLMKWALDNGYRPVTSYTMAPVANRFHLRLENNEEMRDEEVHTIPPELRILLDPDHPPALDNPLFPGEGSPNGGLPFPFPDIPRRGWKEGEDRIPRPKQPIVPSVQLLPDHREPEEVQGGVDIALSVKCDHEKMVVAVDKDSFQTNGYSGMELTLLDPSCKAKMNGTHFVLESPLNGCGTRHRRSTPDGVVYYNSIVVQAPSPGDSSGWPDGYEDLESGDNGFPGDGDEGETAPLSRAGVVVFNCSLRQLRNPSGFQGQLDGNATFNMELYNTDLFLVPSPGVFSVAENEHVYVEVSVTKADQDLGFAIQTCFLSPYSNPDRMSDYTIIENICPKDDSVKFYSSKRVHFPIPHAEVDKKRFSFLFKSVFNTSLLFLHCELTLCSRKKGSLKLPRCVTPDDACTSLDATMIWTMMQNKKTFTKPLAVVLQVDYKENVPSTKDSSPIPPPPPQIFHGLDTLTV
